code X = not defined here

As usually defined, the Kd is the concentration at which binding is half-saturated. A higher Kd goes with lower affinity. By Ki is commonly meant a measure of affinity in units of concentration, obtained from inhibition or displacement.

Assay [1] concerns the target coactivator protein p300 (or the homologous CREB binding protein, CBP) (human), Q09472. The experiment in a line: cell-based or functional assay.
In assay [2] the target is p300-CH1 (cysteine-histidine rich 1 domain of human coactivator protein p300, amino acid residues 323-423) (human), Q09472. The experiment in a line: tryptophan (Trp403) fluorescence spectroscopy, peptide titrated into 1 µM 15N-labeled p300-CH1.
The target in assay [3] is p300-CH1 (cysteine-histidine rich 1 domain of human coactivator protein p300, amino acid residues 323-423) (human) (UniProt Q09472). The experiment in a line: fluorescence polarization competition; HBS 1 added to preformed complex of 300 nM p300-CH1 and 15 nM Flu-HIF C-TAD. (In general: In fluorescence polarisation assays a small probe gives low polarisation when free and higher when bound to something large.)

In assay [4] the target is coactivator protein p300 (or the homologous CREB binding protein, CBP) (human) (UniProt Q09472). The experiment in a line: cell-based or functional assay.
The target in assay [5] is p300-CH1 (cysteine-histidine rich 1 domain of human coactivator protein p300, amino acid residues 323-423) (human) (UniProt Q09472). The assay is described as follows: tryptophan (Trp403) fluorescence spectroscopy, peptide titrated into 1 µM 15N-labeled p300-CH1.
Assay [6] has the same target. The experiment in a line: tryptophan fluorescence spectroscopy; reference peptide 3.
For assay [7] the target is unchanged. The assay is described as follows: fluorescence polarization competition: HBS 1 added to the preformed complex of p300-CH1 (300 nM) and Flu-HIF C-TAD (15 nM); displaced ligand: fluorescein-labeled HIF-1α C-TAD786-826.

Chain of coactivator protein p300 (or the homologous CREB binding protein, CBP) (human) (Q09472 2-2414 limits assumed): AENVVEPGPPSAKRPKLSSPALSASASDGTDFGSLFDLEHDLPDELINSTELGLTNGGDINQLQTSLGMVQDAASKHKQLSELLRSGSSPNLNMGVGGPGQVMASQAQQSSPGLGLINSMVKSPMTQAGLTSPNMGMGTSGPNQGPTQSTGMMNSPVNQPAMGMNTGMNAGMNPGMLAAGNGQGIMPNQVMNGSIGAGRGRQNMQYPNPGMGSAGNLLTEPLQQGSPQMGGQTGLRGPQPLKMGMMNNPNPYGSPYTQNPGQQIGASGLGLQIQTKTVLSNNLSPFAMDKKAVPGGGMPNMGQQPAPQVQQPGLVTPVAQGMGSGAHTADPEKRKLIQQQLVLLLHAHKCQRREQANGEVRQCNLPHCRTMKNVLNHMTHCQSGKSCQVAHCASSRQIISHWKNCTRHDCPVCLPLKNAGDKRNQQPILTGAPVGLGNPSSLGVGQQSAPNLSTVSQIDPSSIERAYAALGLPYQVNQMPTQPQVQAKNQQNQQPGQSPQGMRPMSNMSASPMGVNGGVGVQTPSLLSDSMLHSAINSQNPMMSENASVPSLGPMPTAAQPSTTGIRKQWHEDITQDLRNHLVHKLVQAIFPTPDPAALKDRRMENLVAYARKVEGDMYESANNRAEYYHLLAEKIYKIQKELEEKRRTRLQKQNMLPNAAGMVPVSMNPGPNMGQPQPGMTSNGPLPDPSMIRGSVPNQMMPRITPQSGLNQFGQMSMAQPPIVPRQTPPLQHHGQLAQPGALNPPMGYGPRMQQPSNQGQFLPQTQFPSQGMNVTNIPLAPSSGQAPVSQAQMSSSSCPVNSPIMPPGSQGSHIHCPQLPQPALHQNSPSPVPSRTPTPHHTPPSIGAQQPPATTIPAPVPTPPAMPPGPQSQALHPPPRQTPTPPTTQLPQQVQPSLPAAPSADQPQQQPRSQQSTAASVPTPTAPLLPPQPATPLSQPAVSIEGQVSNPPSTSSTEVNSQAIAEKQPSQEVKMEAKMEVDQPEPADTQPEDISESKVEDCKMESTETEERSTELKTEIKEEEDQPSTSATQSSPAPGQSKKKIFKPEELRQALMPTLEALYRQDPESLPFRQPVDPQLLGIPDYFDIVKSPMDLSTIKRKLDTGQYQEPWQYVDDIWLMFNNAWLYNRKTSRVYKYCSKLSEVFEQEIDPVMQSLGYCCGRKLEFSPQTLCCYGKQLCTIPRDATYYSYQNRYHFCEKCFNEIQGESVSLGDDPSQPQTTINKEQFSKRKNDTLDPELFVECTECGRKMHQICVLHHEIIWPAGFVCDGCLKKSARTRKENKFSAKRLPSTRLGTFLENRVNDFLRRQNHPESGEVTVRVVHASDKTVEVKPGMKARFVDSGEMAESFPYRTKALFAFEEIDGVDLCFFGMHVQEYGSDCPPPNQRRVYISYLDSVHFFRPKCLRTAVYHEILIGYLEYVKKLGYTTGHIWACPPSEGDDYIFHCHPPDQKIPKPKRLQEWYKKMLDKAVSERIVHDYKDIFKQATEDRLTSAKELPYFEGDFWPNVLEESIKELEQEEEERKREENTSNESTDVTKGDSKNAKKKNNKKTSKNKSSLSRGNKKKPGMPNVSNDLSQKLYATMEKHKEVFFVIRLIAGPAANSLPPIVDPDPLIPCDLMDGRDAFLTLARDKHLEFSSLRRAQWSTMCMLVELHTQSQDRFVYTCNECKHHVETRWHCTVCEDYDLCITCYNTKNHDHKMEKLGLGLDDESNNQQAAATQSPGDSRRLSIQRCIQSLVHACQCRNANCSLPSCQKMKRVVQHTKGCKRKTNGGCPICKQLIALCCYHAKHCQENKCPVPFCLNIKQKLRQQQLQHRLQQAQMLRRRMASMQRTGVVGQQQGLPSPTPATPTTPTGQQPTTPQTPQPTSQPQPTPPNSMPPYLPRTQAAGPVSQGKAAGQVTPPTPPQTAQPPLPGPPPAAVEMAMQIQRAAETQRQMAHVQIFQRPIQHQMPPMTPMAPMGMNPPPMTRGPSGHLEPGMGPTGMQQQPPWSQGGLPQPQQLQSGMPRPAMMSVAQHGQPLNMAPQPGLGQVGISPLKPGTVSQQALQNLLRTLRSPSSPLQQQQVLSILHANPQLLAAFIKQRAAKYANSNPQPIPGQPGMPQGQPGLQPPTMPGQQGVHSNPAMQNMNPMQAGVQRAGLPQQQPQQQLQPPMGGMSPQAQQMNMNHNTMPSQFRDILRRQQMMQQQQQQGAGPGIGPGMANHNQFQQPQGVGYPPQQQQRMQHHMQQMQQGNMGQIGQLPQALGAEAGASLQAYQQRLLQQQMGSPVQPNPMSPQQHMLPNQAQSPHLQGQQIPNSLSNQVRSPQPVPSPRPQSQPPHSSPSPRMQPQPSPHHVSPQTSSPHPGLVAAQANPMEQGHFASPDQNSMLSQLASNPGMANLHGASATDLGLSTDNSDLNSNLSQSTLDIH
Chain of p300-CH1 (cysteine-histidine rich 1 domain of human coactivator protein p300, amino acid residues 323-423) (human) (Q09472 323-423 limits assumed): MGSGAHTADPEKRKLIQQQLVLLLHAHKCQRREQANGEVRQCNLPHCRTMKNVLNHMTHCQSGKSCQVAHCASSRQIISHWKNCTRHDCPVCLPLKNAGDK
Chain of coactivator protein p300 (or the homologous CREB binding protein, CBP) (human), Q09472 (Q09472 2-2414 limits assumed): as the sequence (Q09472 2-2414 limits assumed) above
Chain of p300-CH1 (cysteine-histidine rich 1 domain of human coactivator protein p300, amino acid residues 323-423) (human), Q09472 (Q09472 323-423 limits assumed): as the sequence (Q09472 323-423 limits assumed) above

For ELARALDQ (modifications not checked) [Peptide 3], the downregulation of SLC2A1 and LOX expression, qRT-PCR, hypoxic HeLa cells in assay [1] was 25%. This molecule showed a Kd in assay [2] of 6.06 µM.

B1: HBS 1 (peptide)
chain: {code X}-ELARALDQ-NH2
modifications: not fully specified (residue 3, bridges); reading uncertain; also: hydrogen bond surrogate constraint, places not given here
B1 came in with a Ki in assay [3] of 3.5 µM. In assay [4], the expression levels of VEGF, qRT-PCR, hypoxic HeLa cells (% reduction at 10 µM) worked out at 50; the expression levels of VEGF, qRT-PCR, hypoxic HeLa cells (% reduction at 50 µM) is more than 60; the inhibition of SLC2A1 (GLUT1) expression, qRT-PCR, hypoxic HeLa cells fell in the range of 50 to 60%; the luciferase expression, HRE-luciferase reporter in MDA-MB-231-HRE-Luc cells under hypoxia (% reduction at 50 µM) amounted to 25. In assay [5], this molecule came in with a Kd of 0.69 µM. For the same molecule, the fold increase in binding affinity over peptide 3 in assay [6] was 9 fold. In assay [7], this molecule gave an IC50 (read off the curve) of 10 µM.

For the origin of these results see patent US20150065436A1, “INHIBITING INTERACTION BETWEEN HIF-1ALPHA AND p300/CBP WITH HYDROGEN BOND SURROGATE-BASED HELICES” (UNIVERSITY OF SOUTHERN CALIFORNIA, priority 2013, published 2015).
